For assay [1], the target named is GAL4 DNA binding domain fused in-frame to full-length SMAD1 (UniProt P04386). Kind of assay: cell-based or functional assay.
The target in assay [2] is SMAD1 (wild-type, full-length R-SMAD). Nature of the assay: cell-based or functional assay.

2 substances from US20070197457A1 can be followed below.

With “constitutively active TAK1 (TAK1ca) lacking the 22 N-terminal amino acids (from UniProt Q62073 23-579) (enzyme)”, in assay [1], the GAL4/UAS-luciferase reporter, caALK6-receptor-mediated trans-activation of SMAD1, maximum inhibition amounted to 40. Besides, the SMAD1-SBE CAT reporter (SMAD1-mediated transcription), maximum reduction in assay [2] came to 10%.
Consider “dominant-negative TAK1 (TAK1dn) mutant (K63W) (from UniProt Q62073 1-579) (enzyme)”, for which, in assay [1], the GAL4/UAS-luciferase reporter, SMAD trans-activation activity at higher amounts of TAK1dn was 70% and the GAL4/UAS-luciferase reporter, SMAD trans-activation, increase at low concentrations of TAK1dn amounted to 35%.
